In publication PMC10397247:
Where two headings read alike, the source gives them in different places.

T1: P2-AA
T1 chain: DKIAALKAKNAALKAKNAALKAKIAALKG

T2: P2-AA-1HGe-Q
T2 chain: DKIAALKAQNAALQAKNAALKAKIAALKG

T3: P2-AA-1HGe-D
T3 chain: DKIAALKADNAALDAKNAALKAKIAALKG

T4: P2-AA-1HGe-T
T4 chain: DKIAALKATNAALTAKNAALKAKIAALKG

T5: P2-AA-1HGe-M
T5 chain: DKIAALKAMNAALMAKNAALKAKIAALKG

T6: P2-AA-1HGe-A
T6 chain: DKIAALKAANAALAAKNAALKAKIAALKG

T7: 4H932-bA
T7 chain: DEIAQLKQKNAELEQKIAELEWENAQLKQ

T8: 4H730-bA
T8 chain: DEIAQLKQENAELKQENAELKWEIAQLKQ

T9: 4H2931-bA
T9 chain: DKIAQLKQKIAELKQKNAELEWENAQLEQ

T10: 4H796-bA
T10 chain: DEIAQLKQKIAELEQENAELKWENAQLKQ

T11: 4H3297-bA
T11 chain: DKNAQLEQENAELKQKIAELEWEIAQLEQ

T12: 4H3041-bA
T12 chain: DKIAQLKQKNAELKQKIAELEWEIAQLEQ

T13: 4H2859-bA
T13 chain: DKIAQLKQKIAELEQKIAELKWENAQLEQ

T14: 4H349-bA
T14 chain: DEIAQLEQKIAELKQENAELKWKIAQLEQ

T15: 4H56-bA
T15 chain: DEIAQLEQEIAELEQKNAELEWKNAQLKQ

T16: 4H3364-bA
T16 chain: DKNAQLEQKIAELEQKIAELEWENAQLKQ

T17: 4H949-bA
T17 chain: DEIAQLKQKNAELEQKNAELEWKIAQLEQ

T18: 4H3381-bA
T18 chain: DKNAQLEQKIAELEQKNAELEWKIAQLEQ


Columns and labels:
P2-AA = biological target: T1, P2-AA; assay: two-hybrid library CCmax; details: mean of both orientations;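 note: natural log of median RNA to DNA barcode read ratio; higher means stronger binding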
P2-AA-1HGe-Q = biological target: T2, P2-AA-1HGe-Q; assay: two-hybrid library CCmax; details: mean of both orientations;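 note: natural log of median RNA to DNA barcode read ratio; higher means stronger binding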
P2-AA-1HGe-D = biological target: T3, P2-AA-1HGe-D; assay: two-hybrid library CCmax; details: mean of both orientations;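 note: natural log of median RNA to DNA barcode read ratio; higher means stronger binding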
P2-AA-1HGe-T = biological target: T4, P2-AA-1HGe-T; assay: two-hybrid library CCmax;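 note: natural log of median RNA to DNA barcode read ratio; higher means stronger binding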
P2-AA-1HGe-M = biological target: T5, P2-AA-1HGe-M; assay: two-hybrid library CCmax; details: mean of both orientations;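 note: natural log of median RNA to DNA barcode read ratio; higher means stronger binding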
P2-AA-1HGe-A = biological target: T6, P2-AA-1HGe-A; assay: two-hybrid library CCmax; details: mean of both orientations;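 note: natural log of median RNA to DNA barcode read ratio; higher means stronger binding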
4H932-bA = biological target: T7, 4H932-bA; assay: two-hybrid library CCNG1
4H730-bA = biological target: T8, 4H730-bA; assay: two-hybrid library CCNG1
4H2931-bA = biological target: T9, 4H2931-bA; assay: two-hybrid library CCNG1
4H796-bA = biological target: T10, 4H796-bA; assay: two-hybrid library CCNG1
4H3297-bA = biological target: T11, 4H3297-bA; assay: two-hybrid library CCNG1
4H3041-bA = biological target: T12, 4H3041-bA; assay: two-hybrid library CCNG1
4H2859-bA = biological target: T13, 4H2859-bA; assay: two-hybrid library CCNG1
4H349-bA = biological target: T14, 4H349-bA; assay: two-hybrid library CCNG1
4H56-bA = biological target: T15, 4H56-bA; assay: two-hybrid library CCNG1
4H3364-bA = biological target: T16, 4H3364-bA; assay: two-hybrid library CCNG1
4H949-bA = biological target: T17, 4H949-bA; assay: two-hybrid library CCNG1
4H3381-bA = biological target: T18, 4H3381-bA; assay: two-hybrid library CCNG1

Binder | interaction score (P2-AA) | interaction score (P2-AA-1HGe-Q) | interaction score (P2-AA-1HGe-D) | interaction score (P2-AA-1HGe-T; mean of both orientations) | interaction score (P2-AA-1HGe-M) | interaction score (P2-AA-1HGe-A) | interaction score (4H932-bA) | interaction score (4H730-bA) | interaction score (4H2931-bA) | interaction score (4H796-bA) | interaction score (4H3297-bA) | interaction score (4H3041-bA) | interaction score (4H2859-bA) | interaction score (4H349-bA) | interaction score (4H56-bA) | interaction score (4H3364-bA) | interaction score (4H949-bA) | interaction score (4H3381-bA) | interaction score (P2-AA-1HGe-T)
DEIAALEASNAALSAENAALEAEIAALEG [P1-AA-1HGe-S] | 2.03 | 2.06 | 1.63 | – | 2.01 | 1.81 | – | – | – | – | – | – | – | – | – | – | – | – | 2.01
DEIAALEARNAALRAENAALEAEIAALEG [P1-AA-1HGe-R] | 1.49 | 2.26 | 1.67 | 2.2 | 1.7 | 1.97 | – | – | – | – | – | – | – | – | – | – | – | – | –

The next lines start with the values.

interaction score (P2-AA) | interaction score (P2-AA-1HGe-Q) | interaction score (P2-AA-1HGe-D) | interaction score (P2-AA-1HGe-T; mean of both orientations) | interaction score (P2-AA-1HGe-M) | interaction score (P2-AA-1HGe-A) | interaction score (4H932-bA) | interaction score (4H730-bA) | interaction score (4H2931-bA) | interaction score (4H796-bA) | interaction score (4H3297-bA) | interaction score (4H3041-bA) | interaction score (4H2859-bA) | interaction score (4H349-bA) | interaction score (4H56-bA) | interaction score (4H3364-bA) | interaction score (4H949-bA) | interaction score (4H3381-bA) | interaction score (P2-AA-1HGe-T) | Binder
2.07 | 2.05 | 1.17 | 2 | 1.53 | 2.18 | – | – | – | – | – | – | – | – | – | – | – | – | – | DEIAALEATNAALTAENAALEAEIAALEG [P1-AA-1HGe-T]
– | – | – | – | – | – | -0.912 | -1.15 | -0.145 | -0.855 | -0.389 | 0.532 | 0.951 | -1.25 | 0.529 | 0.621 | -1.6 | -1.02 | – | DKIAQLKQKIAELEQKIAELKWENAQLEQ [4H2859-bA]
